Data reported in US20030118546A1 (Human Genome Sciences, published 2003).

Molecular target: T1, TNFα (tumor necrosis factor alpha), soluble (UniProt P01375 77-233)
T1 construct: also called TNFa; TNF-alpha
Test: co-precipitation with protein G-Sepharose, immunoblot with anti-Flag or anti-myc-HRP
Description: The respective Fc-fusions were precipitated with protein G-Sepharose and co-precipitated soluble ligands were detected by immunoblotting with anti-Flag (Babco) or anti-myc-HRP (BMB).

T1 sequence (P01375 77-233 limits assumed): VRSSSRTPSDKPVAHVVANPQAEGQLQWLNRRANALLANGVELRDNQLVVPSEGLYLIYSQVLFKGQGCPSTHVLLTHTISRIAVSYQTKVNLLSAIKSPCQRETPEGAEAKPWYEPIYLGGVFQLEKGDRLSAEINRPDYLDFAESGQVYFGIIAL

B1: TRID-Fc (soluble extracellular ligand binding domain of TRID fused to the Fc portion of human immunoglobulin (IgG)) (Fc fusion)
chain: TTARQEEVPQQTVAPQQQRHSFKGEECPAGSHRSEHTGACNPCTEGVDYTNASNNEPSCFPCTVCKSDQKHKSSCTMTRDTVCQCKEGTFRNENSPEMCRKCSRCPSGEVQVSNCTSWDDIQCVEEFGANATVETPAAEETMNTSPGTPAPAAEETMNTSPGTPAPAAEETMTTSPGTPAPAAEETMTTSPGTPAPAAEETMTTSPGTPASSHY
notes: The extracellular domain is only predicted ('about 27 to about 240'); preparation is said to follow Pan et al., Science 276:111 (1997); also called Fc-extracellular domain of TRID; TNFR-5; not shown: Fc portion of human immunoglobulin (IgG)
  binding result: no binding
